B1: DS6-DM1: muDS6 antibody modified with SPP and conjugated to the maytansinoid DM1 (conjugate)
VH: QAYLQQSGAELVRSGASVKMSCKASGYTFTSYNMHWVKQTPGQGLEWIGYIYPGNGATNYNQKFKGKATLTADPSSSTAYMQISSLTSEDSAVYFCARGDSVPFAYWGQGTLVTVSA
VL: QIVLTQSPAIMSASPGEKVTITCSAHSSVSFMHWFQQKPGTSPKLWIYSTSSLASGVPARFGGSGSGTSYSLTISRMEAEDAATYYCQQRSSFPLTFGAGTKLELKR
B2: DS6: murine anti-CA6 monoclonal antibody DS6 (ATCC deposit number PTA-4449) (antibody, V domains shown)
VH: B1 VH
VL: B1 VL

Experiments:
[1] = test system: cervical cell lines (HeLa, KB, and WISH); assay: Clonogenic assay; assay type: cell-based, human
Protocol: (§1) The cytotoxicity of maytansinoid conjugated muDS6 antibody was examined using 2 different assay formats in various DS6 positive cell lines. Clonogenic assays were conducted where cells (1000-2500 cells/well) were plated on 6-well plates in 2 ml of conjugate diluted in culture media. […] The wells were washed with PBS and the colonies were stained with a 1% w/v crystal violet/10% v/v formaldehyde/PBS solution. Unbound stain was then washed thoroughly from the wells with distilled water, and the plates were allowed to dry. The colonies were counted using a Leica StereoZoom 4 dissecting microscope.
(§2) Plating efficiency (PE) was calculated as the number of colonies/number of cells plated. Surviving fraction was calculated as PE of treated cells/PE of non-treated cells. The IC50 concentration was determined by graphing the surviving fraction of cells vs. the molar concentration of the conjugate.

[2] = test system: A375 cells (antigen negative); assay: Clonogenic assay; assay type: cell-based, human; conditions: 3×10^−9 M, highest concentration tested
Protocol: as §1, §2

pancreatic cell lines = assay: Clonogenic assay; assay type: cell-based, human
Protocol: as §1, §2

TOV-21G tumor xenografts = assay: Subcutaneous TOV-21G xenograft efficacy study; assay type: in vivo, SCID mice
Protocol: OVCAR5 (FIG. 26A and FIG. 26B), TOV-21 G (FIG. 26C and FIG. 26D), HPAC (FIG. 26E and FIG. 26F), and HeLa (FIG. 26G and FIG. 26H) cells were inoculated on day 0, and immunoconjugate treatments were given on day 6 and 13. PBS control animals were euthanized once tumor volumes exceeded 1000 mm^3. The conjugate was given at a dose of 600 μg/kg DM1, corresponding to an antibody concentration 27.7 mg/kg. Tumor volume (FIG. 26A, FIG. 26C, FIG. 26E, and FIG. 26G) and body weight (FIG. 26B, FIG. 26D, FIG. 26F, and FIG. 26H) of the mice were monitored during the course of the study.
muDS6-DM 1 activity was further tested on a panel of subcutaneous xenograft models (see FIG. 26). […] OVCAR5 cells and TOV-21 G are ovarian tumor cell lines; HPAC is a pancreatic tumor cell line; HeLa is a cervical tumor cell line. OVCAR5 and TOV-21G cells have low surface CA6 expression; HeLa cells have an intermediate level of surface CA6 expression; HPAC cells have a high CA6 density of surface expression. TOV-21G and HPAC cells are maytansine sensitive; OVCAR5 and HeLa cells are 2-7-fold less maytansine sensitive.
The 4 cell-lines were grown in vitro, collected, and 1×10^7 cells in a 100 μL of serum free medium were injected under the right shoulder of each mouse (6 mice per model) and allowed to grow for 6 days to an average tumor volume of 57.6±6.7 and 90.2±13.4 mm^3 for the test and control groups respectively of OVCAR5, 147.1±29.6 and 176.2±18.9 mm^3 for the test and control groups respectively of HPAC, 194.3±37.2 and 201.7±71.7 mm^3 for the test and control groups respectively of HeLa, and 96.6±22.8 and 155.6±13.4 mm^3 for the test and control groups respectively of TOV-21G, at which time drug treatment was initiated. For each model three control mice were treated with two weekly doses of PBS and three test mice were treated with two weekly doses of conjugate (600 μg/kg DM1) intravenously. Toxic responses were monitored daily during the treatment and tumor volumes and body weights were monitored throughout the study. […]

MDA-MB-468 cells = assay: Flow cytometry binding assay; set-up: species or system human
Protocol: (§3) Flow cytometric analysis was used to localize the DS6 epitope, CA6, to the cell surface. Human cell lines were obtained from the American Type Culture Collection (ATCC) with the exception of OVCAR5 (Kearse et al., Int. J. Cancer 88(6):866-872 (2000)), OVCAR8 and IGROV1 cells (M. Seiden, Massachusetts General Hospital). All cells were grown in RPMI 1640 supplemented with 4 mM L-glutamine, 50 U/ml penicillin, 50 μg/ml streptomycin (Cambrex Bio Science, Rockland, Me.) and 10% v/v fetal bovine serum (Atlas Biologicals, Fort Collins, Colo.), referred hereafter as culture media. Cells were maintained in a 37° C., 5% CO2 humidified incubator.
(§4) Cells ([…]) were incubated, on ice for 3-4 h, with serially diluted concentrations of the DS6 antibody prepared in FACS buffer (2% goat serum, RPMI) into 96-well plates. The cells were spun down in a table top centrifuge at 1500 rpm for 5 min at 4° C. After removing the media, the wells were then refilled with 150 μl of FACS buffer. The wash step was then repeated. FITC-labeled goat anti-mouse IgG (Jackson Immunoresearch) was diluted 1:100 to FACS buffer and incubated with the cells for 1 h on ice. The plate was covered in foil to prevent photobleaching of the signal. After two washes, the cells were fixed with 1% formaldehyde and analyzed on a flow cytometer.

Hs766T cells = assay: Flow cytometry binding assay; set-up: species or system human
Protocol: as §3, §4

TOV-21G cells = assay: Flow cytometry binding assay; set-up: species or system human
Protocol: as §3, §4

OVCAR-3 cells = assay: Flow cytometry binding assay; set-up: species or system human; conditions: OVCAR3
Protocol: as §3, §4

BT-20 cells = assay: Flow cytometry binding assay; set-up: species or system human
Protocol: as §3, §4

CAMA-1 cells = assay: Flow cytometry binding assay; set-up: species or system human
Protocol: as §3, §4

MDA-MB-157 cells = assay: Flow cytometry binding assay; set-up: species or system human
Protocol: as §3, §4

SK-OV-3 cells = assay: Flow cytometry binding assay; set-up: species or system human
Protocol: as §3, §4

BT-549 cells = assay: Flow cytometry binding assay; set-up: species or system human
Protocol: as §3, §4

Colo205 cells = assay: Flow cytometry binding assay; set-up: species or system human; conditions: Colo205, antigen negative cell line
Protocol: as §3, §4

[3] = 600 μg/kg DM1, two weekly doses

Row | Molecule | sensitivity to the conjugate [1] | effect of conjugate on antigen negative cells [2] | sensitivity to the conjugate (pancreatic cell lines) | body weight (TOV-21G tumor xenografts; [3]) | tumor status at day 61 (TOV-21G tumor xenografts; [3]) | tumor regression (TOV-21G tumor xenografts; 600 μg/kg DM1 i.v., two weekly doses) | MMF (average maximum relative mean fluorescence) (MDA-MB-468 cells) | MMF (average maximum relative mean fluorescence) (Hs766T cells) | MMF (average maximum relative mean fluorescence) (TOV-21G cells) | MMF (maximum mean relative fluorescence) (OVCAR-3 cells) | MMF (average maximum relative mean fluorescence) (BT-20 cells) | MMF (average maximum relative mean fluorescence) (CAMA-1 cells) | MMF (average maximum relative mean fluorescence) (MDA-MB-157 cells) | antigen specific binding (SK-OV-3 cells; SK-OV-3, antigen negative cell line) | MMF (maximum mean relative fluorescence) (SK-OV-3 cells; SKOV3) | MMF (average maximum relative mean fluorescence) (BT-549 cells) | antigen specific binding (Colo205 cells)
1 | B1 | sensitive | only slightly affected | None of the pancreatic cell lines appeared to have been affected | no weight loss was observed | tumor-free | complete tumor regression in all mice | – | – | – | – | – | – | – | – | – | – | –
2 | B2 | – | – | – | – | – | – | 71.58 | 182.90 | 87.79 | 21.19 | 232.20 | 12.46 | 8.635 | no antigen specific binding | 17.53 | 71.39 | no antigen specific binding

Reference: patent US8987424B2, “CA6 antigen-specific cytotoxic conjugate and methods of using the same” (ImmunoGen, Inc., priority 2003, dated 2015)
